These results are taken from a protein production outcome set (Wang et al. 2014).

This series is described as follows: label from the status in PepcDB records.
Consider “MENEKILNPIIIQRADPMIYKHNDGYYYFTASVPEYDRIEVRKAKTIEGLRNAEPVDVWRRHESGEMSNLIWAPEIHFINGAWYIYFAAAPDKNIEDDTFNHRMFVIQNENENPFTGNWVEKGRIKTAWESFSLDATIFEHNEKLYYVWAQQDINIKGHSNIYIAEMENPWTLKTKPVMLTKPELEWEIKGFWVNEGPAVLKKNGKIFITYSASATDVNYCIGMLTAEENSNLLDKNSWTKSQTPVFKTSMENHQYGPGHNSFTVSEDGKHDVIVYHARNYTEIKGDPLYDPNRHTRAQIINWREDGTPDFGVPEVDSLEIETPVKA”, for which the protein production result is reported as “not failed”.

Turning to “MNSLPSPHPPLSPAVPVASRAALRLAELGVFVLTALVVNMPSGLLPFGVCLLGGTLLGWRSLRAGLATQGWSLRVLTGLTAVVIAMSVLSIVLFEPSVRDVENRSRFLVLPWAALWAYALQPRQVWLWRGALAGVFAAMLVAILQVMNGAERAEGWTNAIVFADIALMLLVVAIFCRPNGQVRWLLGAAVAAVAVIVLSGSRGVWLSLLVTLGVLVWGAPWQSARMRLLAFVGGAVVCVGLVLSVPGLTEQLRIGELQSDFQRYEVGDADSSAGARIERLHVAWDTLQAHPLTGVGVGRFDDAMRELPLCAGDTWLLRCHLGHAHNDLAEWGATQGIPGLLLLIAVYGVPLWMFVRLHRRSGQRQFRGPAAAGVMIVISYALCGLTQSMFAHQVSASFYAAMVGILAGLAARQAQQHATAASPLAQSAR”, the protein production entry is reported as “failed”.

As to “MKSSKAEKELTHQYVLNDSLHQLFDAVNIVSVQGYDEQRRVIYWNVGSELLYGYTQKEALGQKLEDLIIPKPMREIVIGAHSDWIKKGIEIPASEITLCHKNGNDVNVFSSHALFTNQYNKKQMYCIDVNLA”, the protein production result is given as “failed”.

On to “MPKSADQGGSPASASHEALRHILDAGASMGGLQGLDEAQQQALYAIGHGAYEQGRYADALKMFCLLVACDPLEARYLLALGAAAQELGLYEHALQQYAAAAALQLDSPRPLLHGAECLYALGRRRDALDTLDMVLELCGSPERAALRERAELLRRSYARAD”, for which the protein production entry is given as “failed”.

Take “MKQLLLGRNALFGLLGAIAVLTVVPVATIMPAYAVDDIEGADAPDLTAVQAKIAAKDYKGALAELRDLAQDNQQADVYNLLGFTLRKTGDVTTALTYYNKALELKPDHKAAREYLGELYVETGDMNKAKEQLASLQKLCPAGCEELSDLQKAIDTKVTQ”: the protein production result is “failed”.

Consider “MLDRLLGRVHDTKHAAPILRGYLWWGLLLRAVLLLALGTLLVVEGNVLAEWLLTVRPPALPQEDVEELTAVSYTVIVVLLMVGTGARWQLLRRLEAAEAVPESAPSSAEEAPPLGR”, for which the protein production entry is “failed”.

Consider “MSTSQTKNVSIDTIKEFMYQVLLKVGSDEENARMVRDTLIAADLRGMDTHGIQRFKTVYIDRIKKGMINPTAKPSIIRETSTTCVLDGNNGFGHVNGTIGMKMAIEKAKKYGMGMVVVRNSTHFGIAGYYSLLAAQEGCIGICGTNARSSVAATFGDEPILGTNPLAIGIPSDEAFPYCFDGATSISPTGRFEKYVRMGKTVDKSWASMKGGKPIEDPKELLENYPKGKAYLHPLGGSDEVSGSHKGYCLSEFVEIMSSCLSIANFLNHIEEEKEKSGKFSLGHFFIAINVECFRDLNEFKKNVGDINRTLRNTDKLPGHDRIYTAGEKEYETEQKRRKFGDDLPLVTINEMKELSSFYNVPLPF”, for which the protein production entry is listed as “not failed”.

Consider “MSEKELELLARIEELERHTWRNSAILRAVAMVAGTAMIGIIVASGVVGGGHGSHWTGPAWNTMWLYGLFAANAVSMFWTTHKD”, for which the protein production entry is “failed”.

As for “MGSAERFQRLLGDRYELRGVLGRGGMAEVRDGWDTRLARPVAIKLLYPALAADADLRARFEREARAAAALTHPHVVAVHDCGEHAGTPYIVMERLSGATLADEIAAGPLPQERVAELLDQILSALIAAHAAGIVHRDIKPGNILIGHTGQAKLADFGIAKTDGVPHTQAGQILGTMAYLSPQRVTGQPAGFADDLYAVGVVGYEALTGRRPFDRDNPAAMVRAILDDVPVPIASVRSDVAPGLIHVIDMAMAREVAFRYPDAATMRAALTGAEPPTQRVGRRQTKVLAAPLPPIPPPPVLPSPRHWRTRLILAVLGIVSTLILVLVLALARGSSGLTSPTSTPTATTVPPATSAVVPPPVPSTPVPAAVPEEPRGPGRGPGPGPGPGKGKGHEKGHGPKGPKGPPHP”, the protein production result is reported as “failed”.

Consider “MKGNCLLKEYQVTMSDDAKADLLSIYHYVRDELCAPQAADDLLERLSQGMLSLSIFPERCAIIEDLIGKGYTFRQLIVKKYRIVYHVLEDEVIIVAVVYGSRHMNNWLEHHHHHH”, for which the protein production result was “failed”.

Take “MPSGQALRISRTCRLNAHPRFDRLWRSPTPIQVSAMIVAFRLFLACLGLFLCLSSPLAAQVSLYSGIAGTSDESAGGDLAEAIRAASEAGASVIVIDSAGRVAAAGTEAGAVETARVDPMGEASQLMKAQEKVSDFIGALRSRLEALPYSIFEVQYILRQTSPDGRIATYAEVLAINLVLLLIGRWMSIEIYGKRIARKHVVSRIREAPRGYREKMPFLVFRFVMGVGATLFAMVFAFIIGFLIFGPMQDLSIQFTVTAIFTAYFLARTASDLWRMVLSPYLSQYRLPPFSDRDAKRLYLWASLLATYDISSELFSTWVADFGLNYNVYAMVYGVLTGVGALGNVLMVLFNGRAISNAIRGGRTKDEVSWILRLVSVAWAPVVLFYMVFGWLQLAFDLVLERPVHIPLMAGTYGIFMSVVVAYGAMNYLLERYFDRTRQVKELNAALAEAEAAEDLSMTGVSAQRHHIATFEDLARRVAGILAFVVGTYALVLIWNPEMDWTGDLPIDRALDVMVIIFLGYIVFHFFRIWIDSKIAEETVDVPEGELGDEGGGTSASRLATLLPLFRGAILAVVVVSIVLIALMEVGINVSPLFAGAGVVGLAVGFGSQTLVRDIFSGAFFLVDDAFRKGEYIDIGDVKGTVEKISVRSFQLRHHLGALHTIPFGEIKVLTNFSRDWVIMKLPLRVTYDTDVEKVRKLIKNLGQELLSDPVIGDNFIQPLKSQGVIEMQDSAMIIRVKFMTKPGDQWLVRKRVYQDIRELFAREGIKFAHREVTVRLADGQEAAKMTPQQREAVTGAVQAAIDEDVLDDMMDDDR”: the protein production result was “failed”.

Take “MNTESVVEFLGNVPLLQKLPSSSLKKIAQVVVPKRYGKGDYVVREDQTWDGCYFILQGEAQVSGPDEEDNRSEFLLKQYDYFGVGLSGNVHSADIVAMSQLTCLVLPRDHCHLLETNSIWQSDTSLDKCSLVERILQLDPLELNIFRGITLPDAPIFGKVFGGQFVGQALAAASKTVDFLKVVHSLHSYFLLVGDIDIPIIYQVHRIRDGNNFATRRVDAVQKGNIIFILLASFQKEQQGFEHQESTMPSVPDPDTLLSLEELRESRITDPHLPRSYRNKVATRNFVPWPIEIRFCEPSNSTNQTKSPPRLNYWFRAKGRLSDDQALHRCVVAFASDLIFCGVGLNPHRRKGVKSAALSLDHAMWFHRPLRADEWLLYVIVSPTAHETRGFVTGQMFNRKGELVVSLTQEALLREARPPKPSGTSKL”: the protein production entry is “failed”.

With “MRVVIVGAGKVGYSLAQYLTQEDHEVIVIEENEERRAIVQNTLDVMTISGNGASPRVLLDPEVRKAELMIAVTDMDEVNMIACMAAKQVGIKRTIARVRNQEYAEKDKIKFNEALGIDLTINPEMVTALEIKRILLTPSALDVEDFAGDRVRMIEVKMPSDSKLINTSLTQLTLPSHTLVAGILRNGRMLIPHGSDMLLPNDCVFFVGEVSAIKKIEDHFTVRKSKVERVLIIGAGRIGRHLAMILEKSDIAVKIIDKDMERCQELAESLDEGLVLCGEGTDIELLTEEGVGEADAVLCLTDDDKLNLLIALLAKHLGAPRTFVRVGRPDYISLMEKVGVDVVLSPRILTAGVILRYVRRSDVVSVSLLEGAKAEAMEIIIPPLSQVTHKKLKDAKLPKNSLIGSIVRDEEIIIPNGETVLKPGDRAIIFALPDTVPTVVRLFENKLESK”, the protein production entry is recorded as “failed”.

For the sequence “SNDQYHRAARDGYLELLKEATRKELNAPDEDGMTPTLWAAYHGNLESLRLIVSRGGDPDKCDIWGNTPLHLAASNGHLHCLSFLVSFGANIWCLDNDYHTPLDMAAMKGHMECVRYLDSIAAKQSSLNPKLVGKLKDKAFREAERRIRECAKLQRRHHERMERRYRRELAERSDTLSFSSLTSSTLSRRLQHLALGSHLPYSQATLHGTARGKTKMQKKLERRKQGGEGTFKVSEDGRKSARSLSGLQLGSDVMFVRQGTYANPKEWGRAPLRDMFLSDEDSVSRATLAAEPAHSEVSTDSGHDSLFTRPGLGTMVFRRNYLSSGLHGLGREDGGLDGVGAPRGRLQSSPSLDDDSLGSANSLQDRSCGEELPWDELDLGLDEDLEPETSPLETFLASLHMEDFAALLRQEKIDLEALMLCSDLDLRSISVPLGPRKKILGAVRRRRQAMERPPALEDTEL”, the protein production entry is “not failed”.

With “METNFSIPLNETEEVLPEPAGHTVLWIFSLLVHGVTFVFGVLGNGLVIWVAGFRMTRTVNTICYLNLALADFSFSAILPFRMVSVAMREKWPFGSFLCKLVHVMIDINLFVSVYLITIIALDRCICVLHPAWAQNHRTMSLAKRVMTGLWIFTIVLTLPNFIFWTTISTTNGDTYCIFNFAFWGDTAVERLNVFITMAKVFLILHFIIGFSVPMSIITVCYGIIAAKIHRNHMIKSSRPLRVFAAVVASFFICWFPYELIGILMAVWLKEMLLNGKYKIILVLINPTSSLAFFNSCLNPILYVFMGRNFQERLIRSLPTSLERALTEVPDSAQTSNTDTTSASPPEETELQAM”, the protein production result was “failed”.

As to “MRPMASELTTFVLIFGTLLFVFGLFSRKIEGTVVTIQMIFLAAGILLSPIGLNLISLSPRSGLVLGVIKVALVLTFFSDASLIGLHSLFLKERLSVRLLFLGLSLTICLGTVFAALLFADITFIDAILLGIILAPTDASLAQKVVEERQVPTLIRNGLIIESGLNDGAVMPLFIFVVALEAVEKLNRPLGTFLAIALEQIGFGIFVGIIIGLVGGWLFSRAFKAGSMSEVYYRTEFVALALISWLVADGVGGNGFIAAFIAGLATRIEDRQVTEEEVILLPRAEGNVLNLAVLFILGVMSAEYLPLVDLKIFAYAVLSLTVVRMVPVTISLIGSHLNIKTGLFMGWFGPRGLASIVLMLITVERIEGIRVSGTIGLAVITTVIISVFAHGITAGPVSNWYARIIATLPPDAPEKESVEELTALQGIETTENIHKEPY”, the protein production result is listed as “failed”.

On to “MAKSRLLLSELLDQLSFALCIVRNDYVIVKVNEYFESRVIFDGETMQGKNILELFPESADYLKRKIDTALVIESSSFSSWEQKPHLLPFKSSRPVSGEEEQMYQNLEVIPIHSEDGTIEHVCLCVYDVTIQASQQQ”, for which the protein production entry was “not failed”.

For “MQKSEGSGGTQLKNRATGNYDQRTSSSTQLKHRNAVQGSKSSLSTSSPESARKLHPRPSDKLNPKTINPFGEQSRVPSAFAAIYSKGGIPCRLVHGSVKHRLQWECPPESLSFDPLLITLAEGLRETKHPYTFVSKEGFRELLLVKGAPEKAIPLLPRLIPVLKAALVHSDDEVFERGLNALVQLSVVVGPSLNDHLKHLLTSGSLSIIKSKIPTYCSICC”, the protein production result is “failed”.

Consider “QLSSVTDSKKKKTILDQIFVWEQNLEQFQMDLFRFRCYLASLQGGELPNPKRLLAFASRPTKVAMGRLGIFSVSSFHALVAARTGETGVRRRTQAM”, for which the protein production entry is on record as “failed”.

Consider “MKLSLRYVLNQFLSTNLSIFFVLFAIVSMVFFIQLAKLTSSIEISFLDLLKLYGFMLPRILIFTLPISFFISLTLALFRLSKENESIVLFTLGFSPMILAKFFLKIASLISAFMLVVALVMIPIVFELQDNFVNYKSTQVKFNYKTGEFGQKFLDWMIFIEKQDSDKYENIIMYRPKHKADDKEQLIIAKEAHVQRKDDSFAFSLNQGKMYNFEQGQSIFSGEFDTLVVNTQFNTDNLQTKKFYEYWNDLNENPQRAREFVIYTTIALFPLASTLFALCFGLVTYRYEKGYVYLGMFGVIAIYFGLLSSFSQPPILACLGIFSLSLFVSAYCFKKMILSRY”, for which the protein production entry is “failed”.
